{"source": "patent US20250215097A1", "about": "(BEIJING TIANNUOJIANCHENG PHARMA TECH, published 2025)", "binders": {"B1": {"name": "144D2 Fab antibody (Fab, V domains shown)", "VH": "EVQLVESGGGLVQPKGSLKLSCAASGFTFNAFAMNWVRQAPGKGLEWVARIRSKSNNYATYYADSVIDRFTISRDDSQSMLYLQMNNLKTEDTAMYYCVRGKEAGAYYAMDYWGQGTSVTVSS", "VL": "DIVMTQAAPSVPVTPGESVSISCRSSKSLLHSNGNTYLYWFLQRPGQSPQLLIYRMSNLASGVPDRFSGSGSGTAFTLRISRVEAEDVGVYYCMQHLEYPLTFGAGTKLEIK", "notes": "also called clone 144D2; 144D2 (female parent)"}, "B2": {"name": "87D8 Fab antibody (Fab, V domains shown)", "VH": "B1 VH with K19R, A31T, F32Y, V48I, I67K", "VL": "B1 VL with I111L", "notes": "also called clone 87D8"}, "B3": {"name": "102H5 Fab antibody (Fab, V domains shown)", "VH": "QVQLVESNGRLVQPKGSLKLSCAASGFTFNAYAMNWVRQAPGKGLEWVARIRSKSNNYATYYADSVKDRFTISRDDSQNMLYLQMNNLKTEDTAMYFCVRQKFGARGYYALDFWGQGATVTVSS", "VL": "DIVLTQSPASLAVSLGQRATISCRASESVEYYGTSLMQWYQQKPGQPPKLLIYAASNVESGVPARFSGSGSGTDFSLNIHPVEEDDIAMYFCQQSRKVPYTFGGGTKLEIK", "notes": "also called clone 102H5"}, "B4": {"name": "109F6 Fab antibody (Fab, V domains shown)", "VH": "B3 VH with N79S, T119S", "VL": "DIVLTQSPASLAVSLGQRATISCRASKSVSTSGYSYMHWYQQKPGQPPKLLIYLASNLESGVPARFSGSGSGTDFTLNIHPVEEEDAATYYCQHSRELPPTFGGGTKLEIK", "notes": "also called clone 109F6"}, "B5": {"name": "110G2 Fab antibody (Fab, V domains shown)", "VH": "B3 VH with N79S, T119S", "VL": "EILLTQSPAIMSASPGEKVTMTCRASSSVSSSYLHWYQQKSGASPKLWIYSTSNLASGVPARFSGSGSGTSYSLTISSVEAEDAATYYCQQYSGYPYTFGGGTKLEIK", "notes": "also called clone 110G2"}, "B6": {"name": "113B3 Fab antibody (Fab, V domains shown)", "VH": "B3 VH with Q1E, R10G, N79S, A105S", "VL": "QIVLTQSPAIMSASLGERVTMTCTASSSVSSSYLHWYQQKPGSSPKLWIYSTSNLASGVPARFSGSGSGTSYSLTISSMEAEDAATYYCHQYHRSPRTFGGGTRLEIK", "notes": "also called clone 113B3"}, "B7": {"name": "116F10 Fab antibody (Fab, V domains shown)", "VH": "B3 VH with Q1E, N8Y, R10G, M80I, T90I, A105S, T119S", "VL": "EIVLTQSPAIMSVSPGEKVTMTCRASSSVSSSYLHWYQQKSGASPKLWIYSTSTLASGVPARFSGSGSGTSYSLTISSVEAEDAATYYCQHYTVYPLGTFGGGTKLEIK", "notes": "also called clone 116F10"}, "B8": {"name": "139A9 Fab antibody (Fab, V domains shown)", "VH": "B3 VH with N79S, T119S", "VL": "ENVLTQSPTTMAASPGEKITITCSASSSISSNYLHWYQQKPGFSPKLLIYRTSNLASGVPARFSGSGSGTSYSLTIGTMEAEDVATYYCQQGSSIPLTFGAGTKLELK", "notes": "also called clone 139A9"}, "B9": {"name": "29A8 anti-CCR8 chimeric antibody (antibody, V domains shown)", "VH": "B1 VH", "VL": "B1 VL with R82K, L101F, A105G"}, "B10": {"name": "30A7 anti-CCR8 chimeric antibody (antibody, V domains shown)", "VH": "B1 VH with E1Q, A31T, F32Y, N57Y, I67K, V99L", "VL": "B1 VL with L101F"}}, "note": "Numbering of substitutions follows the chain as printed."}
{"molecular_target": "T1, human CCR8 (human, UniProt P51685 1-355)", "T1 construct": "Full-length human CCR8 stably expressed on CHO or HEK293 cells; also endogenous on HuT78 cells in one ADCC assay; also called hCCR8; CHO-hCCR8", "T1 sequence (P51685 whole entry)": "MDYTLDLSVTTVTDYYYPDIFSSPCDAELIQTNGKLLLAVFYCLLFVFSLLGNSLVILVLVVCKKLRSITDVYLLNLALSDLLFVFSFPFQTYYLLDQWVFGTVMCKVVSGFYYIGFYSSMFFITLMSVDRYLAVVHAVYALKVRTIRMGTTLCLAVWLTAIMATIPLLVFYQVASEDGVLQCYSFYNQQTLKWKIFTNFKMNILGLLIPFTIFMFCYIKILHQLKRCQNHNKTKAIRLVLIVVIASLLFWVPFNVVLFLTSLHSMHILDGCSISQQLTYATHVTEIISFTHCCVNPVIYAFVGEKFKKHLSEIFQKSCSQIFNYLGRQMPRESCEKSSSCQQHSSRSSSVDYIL", "test": "flow cytometry, purified Fab on CHO-hCCR8 cells", "units": {"EC50": "nM"}}
{"binder": "B1", "EC50": 2.8}
{"molecular_target": "T2, human CCR4 (human, UniProt P51679 1-360)", "T2 construct": "also called hCCR4; human CCR4+ cells", "T2 sequence": "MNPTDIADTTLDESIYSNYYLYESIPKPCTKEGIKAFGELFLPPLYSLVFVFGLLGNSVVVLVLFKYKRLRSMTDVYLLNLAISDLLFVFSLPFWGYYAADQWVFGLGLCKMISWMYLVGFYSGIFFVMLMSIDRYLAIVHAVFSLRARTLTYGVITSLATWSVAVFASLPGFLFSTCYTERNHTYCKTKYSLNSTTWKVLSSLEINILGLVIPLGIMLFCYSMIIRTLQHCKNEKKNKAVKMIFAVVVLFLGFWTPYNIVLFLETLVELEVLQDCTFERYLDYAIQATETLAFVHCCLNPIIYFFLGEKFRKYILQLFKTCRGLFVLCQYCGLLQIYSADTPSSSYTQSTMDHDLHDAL", "test": "flow cytometry of purified Fab on cells stably expressing human CCR4", "method": "The positive clones obtained in example 1 were re-induced to express and purified to obtain a Fab antibody. The binding to cells stably expressing human CCR8, cynomolgus monkey CCR8 and human CCR4 was tested respectively, 5×10⁴ test cells were added to each well of a 96-well U-shaped plate and centrifuged to discard the supernatant, 100 μL/well of the purified Fab antibody was added and the mixture was incubated on ice for 60 minutes. After washing away the unbound primary antibody, 50 μL of a secondary antibody solution (Anti-human IgG, F(ab′)2-AF647, Jackson Immuno Research) was added to each well and the mixture was incubated on ice for 30 minutes. After washing, 50 μL of a PI/BSA solution at 5 μg/mL was added to each well and the mixture was incubated on ice for 5 minutes. Then excess secondary antibody was washed away with 0.5% BSA, the cells were resuspended by adding a PBS solution, and binding of the antibody to the cells was detected using a flow cytometer (Intellicyte iQue)."}
{"binder": "B1", "binding result": "no binding"}
{"binder": "B2", "binding result": "no binding"}
{"binder": "B3", "binding result": "no binding"}
{"binder": "B4", "binding result": "no binding"}
{"binder": "B5", "binding result": "no binding"}
{"binder": "B6", "binding result": "no binding"}
{"binder": "B7", "binding result": "no binding"}
{"binder": "B8", "binding result": "no binding"}
{"molecular_target": "T1, human CCR8", "test": "flow cytometry, chimeric IgG on CHO-hCCR8 cells", "method": "5×10⁴ CHO-hCCR8 or CHO-cynoCCR8 cells were added per well in a 96-well U-shaped plate and centrifuged to discard the supernatant, 100 μL of a gradiently diluted anti-CCR8 chimeric antibody or anti-KLH isotype control antibody was added per well and the mixture was incubated on ice for 60 minutes. After the unbound primary antibody was washed away, 50 μL of a secondary antibody AlexaFluro647 anti-human IgG (Jackson Immuno Research #109-606-170) was added per well and the mixture was incubated on ice for 30 minutes. After the washing, 50 μL of 5 μg/mL of a PI/BSA solution was added to each well and the mixture was incubated on ice for 5 minutes. Then excess secondary antibody was washed away with 0.5% BSA, the cells were resuspended by adding a PBS solution, and binding of the antibody to the cells was detected using a flow cytometer (Intellicyte iQue). The fluorescence value of a Pi-negative cell population was analyzed. Cell-binding curves were fitted by Graphpad Prism 7 (FIG. 2). The chimeric antibodies of 87D8, 102H5, 109F6, 110G2, 113B3, 139A9, 144D2, etc. all bound with high affinities to human CCR8+ cells CHO-hCCR8 and cynomolgus monkey CCR8+ cells CHO-cynoCCR8.", "units": {"EC50": "nM"}}
{"binder": "B9", "EC50": 3.24}
{"binder": "B10", "EC50": 3.39}
{"molecular_target": "T1, human CCR8", "test": "cell-based or functional assay", "units": {"ADCC EC50 (nM), NK92-CD16A effectors, HEK293-hCCR8 targets, LDH release": "nM"}}
{"binder": "B9", "ADCC EC50 (nM), NK92-CD16A effectors, HEK293-hCCR8 targets, LDH release": 0.1}
{"binder": "B10", "ADCC EC50 (nM), NK92-CD16A effectors, HEK293-hCCR8 targets, LDH release": 0.21}
